These are literature values, as cited in PMC12703448.

The pKd is the negative decadic logarithm of the Kd, by convention in mol/L.

pKd: −log10 of the molar value.

The series addresses PDE6D (Homo sapiens) (UniProt O43924).

Chain of PDE6D (Homo sapiens) (O43924 whole entry): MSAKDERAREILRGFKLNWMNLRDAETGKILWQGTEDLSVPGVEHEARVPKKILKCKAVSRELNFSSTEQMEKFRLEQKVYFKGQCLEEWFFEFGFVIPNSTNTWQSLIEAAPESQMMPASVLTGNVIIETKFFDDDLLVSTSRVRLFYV
Chain of INPP5E (Q9NRR6 1-641): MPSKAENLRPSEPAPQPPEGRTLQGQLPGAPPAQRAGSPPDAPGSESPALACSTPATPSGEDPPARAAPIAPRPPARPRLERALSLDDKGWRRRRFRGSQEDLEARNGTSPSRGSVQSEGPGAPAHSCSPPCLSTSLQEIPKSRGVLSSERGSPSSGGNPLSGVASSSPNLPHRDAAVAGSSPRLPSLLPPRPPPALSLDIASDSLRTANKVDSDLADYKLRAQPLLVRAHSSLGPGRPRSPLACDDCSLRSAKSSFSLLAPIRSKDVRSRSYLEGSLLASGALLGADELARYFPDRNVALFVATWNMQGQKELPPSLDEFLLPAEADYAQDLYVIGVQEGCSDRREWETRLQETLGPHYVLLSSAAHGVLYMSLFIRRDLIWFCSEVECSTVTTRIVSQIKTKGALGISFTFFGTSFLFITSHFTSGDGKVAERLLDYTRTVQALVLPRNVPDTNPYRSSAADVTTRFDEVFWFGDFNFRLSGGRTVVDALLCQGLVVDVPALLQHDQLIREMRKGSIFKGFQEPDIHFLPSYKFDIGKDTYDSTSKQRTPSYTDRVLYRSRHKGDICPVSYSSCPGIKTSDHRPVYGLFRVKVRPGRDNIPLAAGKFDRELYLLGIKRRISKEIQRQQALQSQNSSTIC

As for INPP5E (from UniProt Q9NRR6), the pKd was 8.40.
